Patent publication US20250235548A1 (Zymeworks, published 2025)

T1: human sodium-dependent phosphate transporter 2B (NaPi2b) (human, UniProt O95436 1-690)
T1 sequence: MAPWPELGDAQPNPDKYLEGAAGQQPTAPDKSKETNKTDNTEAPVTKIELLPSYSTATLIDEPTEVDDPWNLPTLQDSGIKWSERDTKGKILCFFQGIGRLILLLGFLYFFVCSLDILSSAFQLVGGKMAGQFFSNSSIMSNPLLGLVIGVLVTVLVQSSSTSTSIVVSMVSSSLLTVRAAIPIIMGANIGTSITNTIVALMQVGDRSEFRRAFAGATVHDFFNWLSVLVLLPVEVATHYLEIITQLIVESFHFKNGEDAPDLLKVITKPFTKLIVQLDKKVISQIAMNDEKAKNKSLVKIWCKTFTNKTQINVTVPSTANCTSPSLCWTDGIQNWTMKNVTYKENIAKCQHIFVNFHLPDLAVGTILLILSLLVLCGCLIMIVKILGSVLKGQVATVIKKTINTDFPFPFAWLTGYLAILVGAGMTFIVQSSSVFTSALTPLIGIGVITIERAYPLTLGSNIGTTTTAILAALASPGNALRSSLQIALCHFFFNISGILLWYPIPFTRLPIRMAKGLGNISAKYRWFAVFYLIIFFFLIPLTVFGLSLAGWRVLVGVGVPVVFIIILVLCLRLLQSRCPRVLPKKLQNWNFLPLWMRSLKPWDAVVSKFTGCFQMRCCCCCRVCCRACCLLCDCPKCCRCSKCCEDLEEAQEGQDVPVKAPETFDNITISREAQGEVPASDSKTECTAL

T2: human sodium-dependent phosphate transporter 2B (NaPi2b) (human, UniProt O95436 1-690)
T2 sequence: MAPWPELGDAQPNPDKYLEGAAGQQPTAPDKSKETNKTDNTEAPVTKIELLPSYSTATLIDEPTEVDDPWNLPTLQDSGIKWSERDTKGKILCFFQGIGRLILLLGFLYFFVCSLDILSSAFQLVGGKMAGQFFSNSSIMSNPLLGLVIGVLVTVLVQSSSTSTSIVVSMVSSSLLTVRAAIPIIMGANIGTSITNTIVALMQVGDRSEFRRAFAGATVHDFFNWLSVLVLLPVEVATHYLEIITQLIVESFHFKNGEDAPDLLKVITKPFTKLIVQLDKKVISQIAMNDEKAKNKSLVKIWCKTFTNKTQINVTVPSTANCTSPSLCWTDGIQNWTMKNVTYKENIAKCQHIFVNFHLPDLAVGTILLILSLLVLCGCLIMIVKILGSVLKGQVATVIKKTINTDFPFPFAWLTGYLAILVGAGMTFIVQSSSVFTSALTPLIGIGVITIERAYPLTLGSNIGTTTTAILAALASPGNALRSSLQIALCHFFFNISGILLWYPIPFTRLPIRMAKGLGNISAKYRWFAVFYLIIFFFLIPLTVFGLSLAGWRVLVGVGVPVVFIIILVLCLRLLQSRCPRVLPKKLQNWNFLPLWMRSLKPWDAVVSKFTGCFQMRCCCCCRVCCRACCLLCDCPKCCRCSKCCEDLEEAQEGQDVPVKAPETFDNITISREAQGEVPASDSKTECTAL

B1: v18993-MCvc-PABC-MMAE (lifastuzumab vedotin) (antibody, human IgG1, kappa)
heavy 1: GEVQLVESGGGLVQPGGSLRLSCAASGFSFSDFAMSWVRQAPGKGLEWVATIGRVAFHTYYPDSMKGRFTISRDNSKNTLYLQMNSLRAEDTAVYYCARHRGFDVGHFDFWGQGTLVTVSSASTKGPSVFPLAPSSKSTSGGTAALGCLVKDYFPEPVTVSWNSGALTSGVHTFPAVLQSSGLYSLSSVVTVPSSSLGTQTYICNVNHKPSNTKVDKKVEPKSCDKTHTCPPCPAPELLGGPSVFLFPPKPKDTLMISRTPEVTCVVVDVSHEDPEVKFNWYVDGVEVHNAKTKPREEQYNSTYRVVSVLTVLHQDWLNGKEYKCKVSNKALPAPIEKTISKAKGQPREPQVYVYPPSRDELTKNQVSLTCLVKGFYPSDIAVEWESNGQPENNYKTTPPVLDSDGSFALVSKLTVDKSRWQQGNVFSCSVMHEALHNHYTQKSLSLSPG
heavy 2: not shown
light: GDIQMTQSPSSLSASVGDRVTITCRSSETLVHSSGNTYLEWYQQKPGKAPKLLIYRVSNRFSGVPSRFSGSGSGTDFTLTISSLQPEDFATYYCFQGSFNPLTFGQGTKVEIKRTVAAPSVFIFPPSDEQLKSGTASVVCLLNNFYPREAKVQWKVDNALQSGNSQESVTEQDSKDSTYSLSSTLTLSKADYEKHKVYACEVTHQGLSSPVTKSFNRGEC
modifications: drug-linker MCvc-PABC-MMAE; DAR 4.1 for the whole antibody; sites not stated
B2: v38591 (humanized anti-NaPi2b antibody, H1L2, wild-type Fc) (antibody, human IgG1, kappa)
heavy: not shown
light: DVQMTQSPSSLSASVGDRVTITCRASQDVYSYLNWYQQKPGKAVKLLIYYTSRLQSGVPSRFSGSGSGTDYTLTISSLQPEDFATYYCQQYNIFPWTFGQGTKLEIKRTVAAPSVFIFPPSDEQLKSGTASVVCLLNNFYPREAKVQWKVDNALQSGNSQESVTEQDSKDSTYSLSSTLTLSKADYEKHKVYACEVTHQGLSSPVTKSFNRGEC
B3: v29456-MT-GGFG-AM-Compound 136 DAR 8 (antibody, human IgG1, kappa)
heavy: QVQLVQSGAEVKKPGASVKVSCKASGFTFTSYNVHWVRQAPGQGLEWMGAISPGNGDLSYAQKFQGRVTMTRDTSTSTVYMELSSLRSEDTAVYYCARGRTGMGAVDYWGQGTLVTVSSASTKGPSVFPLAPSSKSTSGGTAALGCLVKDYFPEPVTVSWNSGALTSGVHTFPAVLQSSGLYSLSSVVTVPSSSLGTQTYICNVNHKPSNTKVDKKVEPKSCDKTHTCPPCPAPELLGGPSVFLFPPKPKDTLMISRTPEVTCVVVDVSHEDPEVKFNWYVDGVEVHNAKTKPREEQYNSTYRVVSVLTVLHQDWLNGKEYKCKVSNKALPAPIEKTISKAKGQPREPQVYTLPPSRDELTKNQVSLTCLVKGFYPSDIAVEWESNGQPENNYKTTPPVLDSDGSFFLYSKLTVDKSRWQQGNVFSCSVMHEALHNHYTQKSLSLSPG
light: DVQMTQSPSSLSASVGDRVTITCRASQDVYSYLNWYQQKPGKAVKLLIYYTSRLQSGVPSRFSGSGSGTDYTLTISSLQPEDFATYYCQQYNIFPWTFGQGTKLEIKRTVAAPSVFIFPPSDEQLKSGTASVVCLLNNFYPREAKVQWKVDNALQSGNSQESVTEQDSKDSTYSLSSTLTLSKADYEKHKVYACEVTHQGLSSPVTKSFNRGEC
modifications: MT-GGFG-AM-Compound 136 drug-linker on reduced cysteines (maleimide); DAR 8 for the whole antibody
B4: v29456-MT-GGFG-AM-Compound 139 DAR 8 (antibody, human IgG1, kappa)
heavy: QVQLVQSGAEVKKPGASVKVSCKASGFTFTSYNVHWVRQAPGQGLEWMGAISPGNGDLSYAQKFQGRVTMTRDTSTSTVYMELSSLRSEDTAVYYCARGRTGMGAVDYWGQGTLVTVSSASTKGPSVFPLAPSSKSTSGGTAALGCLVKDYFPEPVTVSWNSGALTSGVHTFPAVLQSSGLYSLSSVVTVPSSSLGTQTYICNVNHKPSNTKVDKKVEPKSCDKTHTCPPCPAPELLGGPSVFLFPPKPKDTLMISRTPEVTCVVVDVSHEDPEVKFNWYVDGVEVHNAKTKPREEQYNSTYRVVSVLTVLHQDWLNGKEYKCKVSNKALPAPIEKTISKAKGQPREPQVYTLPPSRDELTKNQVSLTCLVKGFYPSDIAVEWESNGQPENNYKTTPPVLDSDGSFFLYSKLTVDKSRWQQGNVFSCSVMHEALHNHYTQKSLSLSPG
light: DVQMTQSPSSLSASVGDRVTITCRASQDVYSYLNWYQQKPGKAVKLLIYYTSRLQSGVPSRFSGSGSGTDYTLTISSLQPEDFATYYCQQYNIFPWTFGQGTKLEIKRTVAAPSVFIFPPSDEQLKSGTASVVCLLNNFYPREAKVQWKVDNALQSGNSQESVTEQDSKDSTYSLSSTLTLSKADYEKHKVYACEVTHQGLSSPVTKSFNRGEC
modifications: MT-GGFG-AM-Compound 139 drug-linker on reduced cysteines (maleimide); DAR 8 for the whole antibody
B5: v29456-MT-GGFG-AM-Compound 141 DAR 8 (antibody, human IgG1, kappa)
heavy: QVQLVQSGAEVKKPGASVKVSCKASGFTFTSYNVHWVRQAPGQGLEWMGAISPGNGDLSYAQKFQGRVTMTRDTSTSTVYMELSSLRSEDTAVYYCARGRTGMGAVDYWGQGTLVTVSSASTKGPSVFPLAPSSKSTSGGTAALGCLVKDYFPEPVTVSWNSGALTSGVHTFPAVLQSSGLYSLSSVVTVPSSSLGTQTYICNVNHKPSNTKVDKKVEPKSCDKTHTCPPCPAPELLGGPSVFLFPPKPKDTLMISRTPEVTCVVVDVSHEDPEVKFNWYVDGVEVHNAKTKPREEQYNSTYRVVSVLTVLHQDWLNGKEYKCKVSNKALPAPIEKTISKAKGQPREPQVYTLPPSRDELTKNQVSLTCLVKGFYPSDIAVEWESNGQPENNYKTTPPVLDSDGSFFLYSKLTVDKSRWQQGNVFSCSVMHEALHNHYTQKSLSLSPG
light: DVQMTQSPSSLSASVGDRVTITCRASQDVYSYLNWYQQKPGKAVKLLIYYTSRLQSGVPSRFSGSGSGTDYTLTISSLQPEDFATYYCQQYNIFPWTFGQGTKLEIKRTVAAPSVFIFPPSDEQLKSGTASVVCLLNNFYPREAKVQWKVDNALQSGNSQESVTEQDSKDSTYSLSSTLTLSKADYEKHKVYACEVTHQGLSSPVTKSFNRGEC
modifications: MT-GGFG-AM-Compound 141 drug-linker on reduced cysteines (maleimide); DAR 8 for the whole antibody
B6: v29456-MT-GGFG-AM-Compound 129 DAR 8 (antibody, human IgG1, kappa)
heavy: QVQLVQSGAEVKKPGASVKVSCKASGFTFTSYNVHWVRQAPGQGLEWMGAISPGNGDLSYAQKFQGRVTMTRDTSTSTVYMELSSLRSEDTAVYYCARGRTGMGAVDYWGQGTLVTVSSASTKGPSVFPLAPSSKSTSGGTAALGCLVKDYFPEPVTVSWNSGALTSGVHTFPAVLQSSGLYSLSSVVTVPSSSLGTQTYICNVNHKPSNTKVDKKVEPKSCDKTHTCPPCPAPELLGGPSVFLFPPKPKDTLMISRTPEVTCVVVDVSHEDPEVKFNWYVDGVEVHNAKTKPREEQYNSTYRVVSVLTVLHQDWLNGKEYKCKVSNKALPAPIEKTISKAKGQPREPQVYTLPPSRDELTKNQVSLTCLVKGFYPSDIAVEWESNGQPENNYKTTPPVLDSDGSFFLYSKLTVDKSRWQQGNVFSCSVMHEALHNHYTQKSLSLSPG
light: DVQMTQSPSSLSASVGDRVTITCRASQDVYSYLNWYQQKPGKAVKLLIYYTSRLQSGVPSRFSGSGSGTDYTLTISSLQPEDFATYYCQQYNIFPWTFGQGTKLEIKRTVAAPSVFIFPPSDEQLKSGTASVVCLLNNFYPREAKVQWKVDNALQSGNSQESVTEQDSKDSTYSLSSTLTLSKADYEKHKVYACEVTHQGLSSPVTKSFNRGEC
modifications: MT-GGFG-AM-Compound 129 drug-linker on reduced cysteines (maleimide); DAR 8 for the whole antibody
B7: v29456-MT-GGFG-Compound 148 DAR 8 (antibody, human IgG1, kappa)
heavy: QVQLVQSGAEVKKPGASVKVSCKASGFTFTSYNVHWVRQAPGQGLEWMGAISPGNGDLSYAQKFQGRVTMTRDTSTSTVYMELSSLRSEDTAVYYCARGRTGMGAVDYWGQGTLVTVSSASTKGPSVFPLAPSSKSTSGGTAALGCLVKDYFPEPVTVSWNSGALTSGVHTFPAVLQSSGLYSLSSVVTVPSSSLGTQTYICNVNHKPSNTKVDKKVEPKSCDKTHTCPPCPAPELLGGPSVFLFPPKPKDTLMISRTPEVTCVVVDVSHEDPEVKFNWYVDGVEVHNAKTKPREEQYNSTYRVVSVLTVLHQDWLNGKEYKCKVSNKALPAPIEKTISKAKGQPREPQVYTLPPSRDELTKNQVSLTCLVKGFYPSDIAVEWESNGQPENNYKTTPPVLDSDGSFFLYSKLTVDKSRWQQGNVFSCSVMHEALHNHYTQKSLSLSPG
light: DVQMTQSPSSLSASVGDRVTITCRASQDVYSYLNWYQQKPGKAVKLLIYYTSRLQSGVPSRFSGSGSGTDYTLTISSLQPEDFATYYCQQYNIFPWTFGQGTKLEIKRTVAAPSVFIFPPSDEQLKSGTASVVCLLNNFYPREAKVQWKVDNALQSGNSQESVTEQDSKDSTYSLSSTLTLSKADYEKHKVYACEVTHQGLSSPVTKSFNRGEC
modifications: MT-GGFG-Compound 148 drug-linker on reduced cysteines (maleimide); DAR 8 for the whole antibody
B8: v38591-MC-GGFG-AM-Compound 139 DAR 4 (antibody, human IgG1, kappa)
heavy: not shown
light: DVQMTQSPSSLSASVGDRVTITCRASQDVYSYLNWYQQKPGKAVKLLIYYTSRLQSGVPSRFSGSGSGTDYTLTISSLQPEDFATYYCQQYNIFPWTFGQGTKLEIKRTVAAPSVFIFPPSDEQLKSGTASVVCLLNNFYPREAKVQWKVDNALQSGNSQESVTEQDSKDSTYSLSSTLTLSKADYEKHKVYACEVTHQGLSSPVTKSFNRGEC
modifications: drug-linker MC-GGFG-AM-Compound 139 conjugated by maleimide after TCEP reduction; DAR 4 for the whole antibody; sites not stated
B9: v29456-MT-GGFG-Compound 140 DAR 8 (antibody, human IgG1, kappa)
heavy: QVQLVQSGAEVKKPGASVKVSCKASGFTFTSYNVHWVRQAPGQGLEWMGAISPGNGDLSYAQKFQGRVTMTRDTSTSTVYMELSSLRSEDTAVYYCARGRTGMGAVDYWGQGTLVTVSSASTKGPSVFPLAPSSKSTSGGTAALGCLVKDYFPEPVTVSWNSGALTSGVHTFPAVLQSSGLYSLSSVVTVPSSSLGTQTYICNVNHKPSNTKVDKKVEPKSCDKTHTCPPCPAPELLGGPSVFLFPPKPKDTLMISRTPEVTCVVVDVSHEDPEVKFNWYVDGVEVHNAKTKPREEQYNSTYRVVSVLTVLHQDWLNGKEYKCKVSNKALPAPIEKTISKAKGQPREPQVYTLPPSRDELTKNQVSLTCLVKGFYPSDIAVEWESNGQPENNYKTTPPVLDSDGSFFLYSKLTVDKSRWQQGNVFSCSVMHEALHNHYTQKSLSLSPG
light: DVQMTQSPSSLSASVGDRVTITCRASQDVYSYLNWYQQKPGKAVKLLIYYTSRLQSGVPSRFSGSGSGTDYTLTISSLQPEDFATYYCQQYNIFPWTFGQGTKLEIKRTVAAPSVFIFPPSDEQLKSGTASVVCLLNNFYPREAKVQWKVDNALQSGNSQESVTEQDSKDSTYSLSSTLTLSKADYEKHKVYACEVTHQGLSSPVTKSFNRGEC
modifications: MT-GGFG-Compound 140 drug-linker on reduced cysteines (maleimide); DAR 8 for the whole antibody
B10: v40502 (LALADS) anti-NaPi2b antibody (antibody, human IgG1, kappa, L234A L235A)
heavy: not shown
light: DVQMTQSPSSLSASVGDRVTITCRASQDVYSYLNWYQQKPGKAVKLLIYYTSRLQSGVPSRFSGSGSGTDYTLTISSLQPEDFATYYCQQYNIFPWTFGQGTKLEIKRTVAAPSVFIFPPSDEQLKSGTASVVCLLNNFYPREAKVQWKVDNALQSGNSQESVTEQDSKDSTYSLSSTLTLSKADYEKHKVYACEVTHQGLSSPVTKSFNRGEC
B11: v40502-MC-GGFG-AM-Compound 139 DAR 4 (antibody, human IgG1, kappa, L234A L235A)
heavy: not shown
light: DVQMTQSPSSLSASVGDRVTITCRASQDVYSYLNWYQQKPGKAVKLLIYYTSRLQSGVPSRFSGSGSGTDYTLTISSLQPEDFATYYCQQYNIFPWTFGQGTKLEIKRTVAAPSVFIFPPSDEQLKSGTASVVCLLNNFYPREAKVQWKVDNALQSGNSQESVTEQDSKDSTYSLSSTLTLSKADYEKHKVYACEVTHQGLSSPVTKSFNRGEC
modifications: drug-linker MC-GGFG-AM-Compound 139 conjugated by maleimide after TCEP reduction; DAR 4 for the whole antibody (printed 3.3 in Table 45.1); sites not stated
B12: v21995 (palivizumab, anti-RSV antibody) (antibody, human IgG1, kappa, V domains shown)
VH: QVTLRESGPALVKPTQTLTLTCTFSGFSLSTSGMSVGWIRQPPGKALEWLADIWWDDKKDYNPSLKSRLTISKDTSKNQVVLKVTNMDPADTATYYCARSMITNWYFDVWGAGTTVTVSS
VL: DIQMTQSPSTLSASVGDRVTITCKSQLSVGYMHWYQQKPGKAPKLLIYDTSKLASGVPSRFSGSGSGTEFTLTISSLQPDDFATYYCFQGSGYPFTFGGGTKLEIKR

Experiments:
Experiment in all cases: cell-based or functional assay
[1] = target: T1, human sodium-dependent phosphate …
[2] = target: T1, human sodium-dependent phosphate …; remark: listed apart in the source
[3] = target: T2, human sodium-dependent phosphate …; remark: listed apart in the source
[4] = target: T2, human sodium-dependent phosphate …; remark: listed apart in the source

Row | Binder | EC50 (nM), in vitro cytotoxicity, H441 Spheroids [1] [nM] | EC50 (nM), in vitro cytotoxicity, H1781 Spheroids [1] [nM] | Internalized Fluorescence Fold-Over Untreated, H441, 4 hours, 2.5 nM [2] [fold] | Internalized Fluorescence Fold-Over Untreated, H441, 24 hours, 2.5 nM [2] [fold] | Internalized Fluorescence Fold-Over Untreated, HCC-78, 4 hours, 2.5 nM [2] [fold] | Internalized Fluorescence Fold-Over Untreated, HCC-78, 24 hours, 2.5 nM [2] [fold] | Internalized Fluorescence Fold-Over Untreated, IGROV-1, 4 hours, 2.5 nM [2] [fold] | Internalized Fluorescence Fold-Over Untreated, IGROV-1, 24 hours, 2.5 nM [2] [fold] | EC50 of cytotoxicity, 2D monolayer, HCC-78 cells, 4 days, CellTiter-Glo [3] [nM] | EC50 of cytotoxicity, 2D monolayer, IGROV-1 cells, 4 days, CellTiter-Glo [3] [nM] | EC50 of cytotoxicity, HCC-78 3D spheroids, 6 days, CellTiter-Glo 3D [4] [nM] | EC50 of cytotoxicity, IGROV-1 3D spheroids, 6 days, CellTiter-Glo 3D [4] [nM]
1 | B1 | 11.4 | 7.94 | – | – | – | – | – | – | – | – | – | –
2 | B2 | > 200 | > 200 | 1.2 | 1.9 | 5.7 | 35 | 7.2 | 26 | – | – | – | –
3 | B3 | – | – | – | – | – | – | – | – | 0.43 | 4.48 | – | –
4 | B4 | – | – | – | – | – | – | – | – | 0.65 | 1.71 | 0.82 | 0.37
5 | B5 | – | – | – | – | – | – | – | – | 0.26 | 1.56 | 0.33 | 0.21
6 | B6 | – | – | – | – | – | – | – | – | 0.42 | 1.11 | – | –
7 | B7 | – | – | – | – | – | – | – | – | 1.98 | – | – | –
8 | B8 | 9.85 | 0.95 | 1.2 | 2 | 5.6 | 35.9 | 7.1 | 26.6 | – | – | – | –
9 | B9 | – | – | – | – | – | – | – | – | 0.6 | – | 0.19 | 0.25
10 | B10 | > 200 | > 200 | 1.2 | 1.9 | 5.5 | 35.5 | 7 | 25.3 | – | – | – | –
11 | B11 | 7.57 | 1.15 | 1.2 | 1.9 | 5.3 | 36.5 | 6.8 | 25.4 | – | – | – | –
12 | B12 | – | – | 1 | 1.1 | 1 | 1.1 | 0.9 | 1 | – | – | – | –
